Experimental data as given in WO2020259667A1 (dated 2020).
Values belong to the binder of their own block, whether it stands above or below them.

How the values were obtained:
[1] = molecular target: T1, human OX40-His protein (Sino Biological 10481-H08H) (human, UniProt P43489 29-216); experiment: SPR, Biacore T200; antibody amine-coupled to a CM5 chip, human OX40-His as analyte, 1:1 Langmuir model
T1 construct: Bought protein, used as the analyte in Biacore; not shown: His tag
T1 sequence (looked up): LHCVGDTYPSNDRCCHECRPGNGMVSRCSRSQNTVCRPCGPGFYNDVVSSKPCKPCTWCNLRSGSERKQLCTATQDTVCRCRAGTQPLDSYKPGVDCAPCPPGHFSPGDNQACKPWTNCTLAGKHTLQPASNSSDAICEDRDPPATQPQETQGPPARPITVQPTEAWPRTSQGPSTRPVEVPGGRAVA

[2] = molecular target: T2, human OX40-Fc, biotin-labelled (OX40 Leu 29-Ala 216, Accession NP_003318, fused with Fc); Acro Biosystems … (human, UniProt P43489 29-216, labelled with biotin (sites not given)); experiment: blocking ELISA: OX40 ligand coated on the plate, serially diluted 2G3 pre-incubated with biotinylated human OX40-Fc, SA-HRP detection; competitor OX40L
T2 construct: range 29-216; Bought from Acro Biosystems and expressed in HEK293; also called human Bio-OX40-FC; not shown: Fc tag of the bought protein
T2 sequence (looked up): T1 sequence (looked up)

[3] = molecular target: T3, human OX40 on Jurkat-NF-Kb luc-hOX40 cells (human, UniProt P43489 29-277); experiment: cell-based or functional assay
T3 sequence (looked up): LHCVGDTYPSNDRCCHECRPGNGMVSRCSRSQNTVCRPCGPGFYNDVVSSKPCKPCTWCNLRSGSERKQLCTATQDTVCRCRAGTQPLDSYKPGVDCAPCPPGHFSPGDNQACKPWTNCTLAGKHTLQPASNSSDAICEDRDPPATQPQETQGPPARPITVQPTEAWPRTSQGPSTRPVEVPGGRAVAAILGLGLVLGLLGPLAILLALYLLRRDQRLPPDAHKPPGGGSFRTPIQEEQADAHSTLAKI

[4] = molecular target: human OX40 on Jurkat-NF-Kb luc-hOX40 cells (human) (UniProt P43489); experiment: cell-based or functional assay

Kd [1]: 4.63 nM | koff [1]: 0.00202 s⁻¹ | kon [1]: 437000 M⁻¹ s⁻¹ | IC50 [2]: 1.88 nM | EC50(nM), luciferase reporter gene (RLU) in Jurkat-NF-Kb luc-hOX40 cells mixed with Raji cells on an anti-CD3 coated plate [3]: 2.29 nM
B1: 2G3 (humanized anti-OX40 antibody, hu2G3 VH1.1 + hu2G3 VL1) (antibody, human IgG1, kappa, V domains shown)
VH: QVQLQESGPGLVKPSETLSLTCTVSGYSISRYSVHWVRQPPGKGLEWIGMIWDGGNTDYNAALKSRFTISRDNAKNTLYLQMNSLRAEDTAVYYCARNPLYFSYAMDYWGQGTLVTVSS
VL: DIQMTQSPSSLSASVGDRVTITCRASQDISNYLNWYQQKPDQSPKLLIIYTSRLQSGVPSRFSGSGSGTDYTLTISSLQPEDFATYYCQQVNTFPFTFGQGTKLEIKR
notes: Format is IgG1/kappa; also called drug A; humanized 2G3 antibody

EC50(nM), luciferase reporter gene (RLU) in Jurkat-NF-Kb luc-hOX40 cells mixed with Raji cells on an anti-CD3 coated plate [4]: 0.637 nM
B2: chimeric antibody Ch2G3 (m2G3 variable regions with human IgG1 and human Kappa constant regions) (antibody, from another filing, V domains shown)
VH: QVQLKESGPGLVASSQSLSITCTVSGFSLSRYSVHWVRQPPGKGLEWLGMIWDGGNTDYNSALKSRLSISKDNSKSQVFLKMNSLQTDDTAMYYCARNPLYFSYAMDYWGQGTSVTVSS
VL: DIQMTQSTSSLSASLGDRVTISCRASQDISNYLNWYQQKPDGTVKLLIIYTSRLQSGVPSRFSGSGSGTDYSLTISNLEQEDIATYFCQQVNTFPFTFGSGTKLEIK
